Four molecules from US20120114665A1 (Regeneron, published 2012) can be followed below.

Assay [1] concerns the target T1, penta-his-tagged hRANKL (human).
T1 construct: also called his-hRANKL; not shown: penta-his tag
T1 chain: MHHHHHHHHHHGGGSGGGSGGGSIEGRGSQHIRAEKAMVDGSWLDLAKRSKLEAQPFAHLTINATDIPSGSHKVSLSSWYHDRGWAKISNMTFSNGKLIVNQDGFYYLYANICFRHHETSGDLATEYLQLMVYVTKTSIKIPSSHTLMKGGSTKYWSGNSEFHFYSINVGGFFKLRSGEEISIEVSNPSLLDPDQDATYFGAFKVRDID
The assay can be described thus: competition ELISA: 150 pM his-hRANKL pre-mixed with antibody, free RANKL detected on hRANK-hFc plate. As to the method: (§1) Briefly, hRANK-hFc protein was coated on a 96-well plate in PBS buffer overnight at 4° C. at 2 μg/ml, and nonspecific binding was blocked with BSA, to form a hRANK-hFc surface.
Background: ELISA stands for enzyme-linked immunosorbent assay.

The target of assay [2] is T2, penta-his-tagged monkey (Macaca fascicularis) RANKL (Macaca fascicularis, UniProt O14788 125-317 (human entry)).
T2 construct: also called his-mfRANKL; mfRANKL; not shown: penta-his tag
T2 chain: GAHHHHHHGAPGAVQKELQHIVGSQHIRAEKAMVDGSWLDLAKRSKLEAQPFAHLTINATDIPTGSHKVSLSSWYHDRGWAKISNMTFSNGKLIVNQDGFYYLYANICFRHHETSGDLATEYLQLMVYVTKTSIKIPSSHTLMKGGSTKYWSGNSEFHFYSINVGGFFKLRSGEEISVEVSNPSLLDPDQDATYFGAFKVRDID
As to the kind of experiment: competition ELISA: 150 pM his-mfRANKL pre-mixed with antibody, free RANKL detected on hRANK-hFc plate. As to the method:
as §1

The target of assay [3] is T3, human trRANKL-his (R&D) (human, UniProt O14788 136-317, limits assumed).
T3 construct: Bought (R&D); also called captured RANKL; not shown: his tag
T3 sequence: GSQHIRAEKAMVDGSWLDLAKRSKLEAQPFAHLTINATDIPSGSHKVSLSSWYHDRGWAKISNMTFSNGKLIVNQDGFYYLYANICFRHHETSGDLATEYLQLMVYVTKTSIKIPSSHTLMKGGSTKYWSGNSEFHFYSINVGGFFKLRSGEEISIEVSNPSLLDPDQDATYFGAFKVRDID
As to the kind of experiment: SPR, trRANKL-his captured on anti-his, antibody 12.5-50 nM injected, 25°C. The text has this: (§2) Briefly, human trRANKL-his (R&D) was first captured over an anti-his surface. […] The antigen and antibody binding and dissociation were monitored for 1 hr. KD is expressed in pM, T_{1/2} in hrs.
(In general: In SPR one partner is held on a chip, and binding of the other changes the refractive index at the surface.)

Assay [4] has as its target T4, human RANKL (receptor activator of NF-κB ligand) (human, UniProt O14788 140-317, limits assumed).
T4 sequence: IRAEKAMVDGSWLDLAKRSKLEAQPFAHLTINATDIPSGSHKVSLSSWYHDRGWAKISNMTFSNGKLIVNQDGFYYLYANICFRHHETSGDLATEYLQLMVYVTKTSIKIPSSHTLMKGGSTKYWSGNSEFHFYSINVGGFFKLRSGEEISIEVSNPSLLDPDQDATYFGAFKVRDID
As to the kind of experiment: cell-based or functional assay.

Assay [5] concerns the target T3, human trRANKL-his (R&D). The assay can be described thus: SPR, trRANKL-his captured on anti-his, antibody 12.5-50 nM injected, 37°C.
Description: as §2

Assay [6] deals with T5, hRANKL captured on an anti-penta-his antibody surface (human, UniProt O14788 136-317).
T5 construct: also called captured hRANKL surface; not shown: his tag implied by capture on anti-penta-his
T5 sequence: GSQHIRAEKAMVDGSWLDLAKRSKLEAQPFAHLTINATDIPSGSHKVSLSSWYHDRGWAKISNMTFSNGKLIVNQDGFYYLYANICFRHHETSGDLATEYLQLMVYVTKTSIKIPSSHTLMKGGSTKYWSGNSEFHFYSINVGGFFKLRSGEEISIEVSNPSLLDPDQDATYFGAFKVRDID
As to the kind of experiment: SPR (BIACORE), hRANKL captured on anti-penta-his, antibody 25-100 nM injected, 25°C.

Assay [7] concerns the target T4, human RANKL (receptor activator of …). The assay can be described thus: SPR (BIACORE), purified antibody, 25°C.
Assay [8] has as its target T5, hRANKL captured on an anti-penta-his …. As to the kind of experiment: SPR (BIACORE), hRANKL captured on anti-penta-his, antibody 25-100 nM injected, 37°C.
The target of assay [9] is T4, human RANKL (receptor activator of …). The assay can be described thus: cell-based or functional assay. The source holds these as a separate data set.
The target in assay [10] is T2, penta-his-tagged monkey (Macaca …). As to the kind of experiment: competition ELISA: 150 pM his-mfRANKL pre-mixed with antibody, free RANKL detected on hRANK-hFc plate. As to the method:
as §1

The target of assay [11] is T4, human RANKL (receptor activator of …). As to the kind of experiment: SPR (BIACORE), purified antibody, 37°C.
The target of assay [12] is T1, penta-his-tagged hRANKL. As to the kind of experiment: competition ELISA: 150 pM his-hRANKL pre-mixed with antibody, free RANKL detected on hRANK-hFc plate. As to the method: as §1

Where “and” joins values, the source holds several entries; their conditions need not be identical. Identical values can stand only once. Like-named read-outs stand apart in the source and are kept apart here.

B1: H4H010P2 (antibody, V domains shown)
VH: QVQLVQSGGGVVQPGRSLRLSCAASGFTFSGYGMHWVRQAPGKGLDWVTVISYDGSNKHYADSVKGRFTISRDNSKNTLYLQMSSLGPEDTAVYYCAKSLSGTYWGYGMDVWGQGTTVTVSS
VL: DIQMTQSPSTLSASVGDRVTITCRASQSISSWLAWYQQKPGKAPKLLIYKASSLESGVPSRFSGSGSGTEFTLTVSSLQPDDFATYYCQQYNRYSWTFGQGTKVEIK
The IC50 is the concentration that gives 50% inhibition. The Kd is the constant that tells how readily two partners part at equilibrium. Turning to B1, the IC50 in the assay with penta-his-tagged hRANKL [1] is 0.0519 nM; in assay [2], 0.353 nM. Also, the Kd with human trRANKL-his (R&D) [3] was found to be 0.134 nM; with human trRANKL-his (R&D) [5] it was 0.848 nM. The T1/2 in the assay with human trRANKL-his (R&D) [3] stood at 1 h; in the assay with human trRANKL-his (R&D) [5] it was 0.15 h. Also, the “IC50, hRANKL-inducible luciferase activity in HK293/RANK/NFκB-luc-eGFP cells” value (from here on “IC50 … in HK293/RANK/NFκB-luc-eGFP cells”) in assay [4] was determined as 0.0187 nM.

B2: H4H008G (antibody, V domains shown)
VH: QVQLVESGGGVVQPGRSLRLSCAASGFTFSGFGMHWVRQAPGKGLEWVAVISYDGRNKYYADSVKGRFTISRDNSKNTLYLQMNSLRAEDTAVYYCAKSLSGTYWGYGMDVWGQGTTVTVS
VL: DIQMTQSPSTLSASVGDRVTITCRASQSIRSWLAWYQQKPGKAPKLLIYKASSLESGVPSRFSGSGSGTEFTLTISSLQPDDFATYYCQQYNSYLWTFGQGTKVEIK
notes: Purified antibody from clone 2G10
For B2, the Kd in [6] came out at 0.0119 nM; in assay [7], 0.007 nM; in assay [8], 0.0399 nM; in [11] it was 0.163 nM; with human trRANKL-his (R&D) [3] it was 0.0119 nM; with human trRANKL-his (R&D) [5] it was 0.0395 nM. For the same molecule, the T1/2 in [6] was found to be 6 h; in assay [8] it was 1 h; in the assay with human trRANKL-his (R&D) [3] it was 6 h; with human trRANKL-his (R&D) [5] it was 1 h. Also, the “IC50 … in HK293/RANK/NFκB-luc-eGFP cells” value stood at 0.02 nM in [9] and 0.0108 nM in assay [4]. Further, the IC50 in the assay with penta-his-tagged hRANKL [1] came to 0.09 nM; in assay [10], 0.16 nM; in [2], 0.29 nM; with penta-his-tagged hRANKL [12] it was 0.02 nM.

B3: H4H009P (antibody, V domains shown)
VH: QVQLVESGGGVVQPGRSLRLSCAASGFTFSGYGIHWVRQAPDKGLEWVAVISYDGTNKYYGDSVKGRFTISRDNTKNTLYLQMNSLRTEDTAVYYCAKSLSGTYWGYGMDVWGQGTTVTVS
VL: DIQMTQSPSTLSASVGDRVTITCRASQNIGNWLAWYQQKPGKAPKLLIYKASSLQNGVPSRFSGSGSGTEFTLTISSLQPDDFATYYCQRYNSYSWTFGQGTKVEIK
notes: Purified antibody from clone 2H10
With B3, the Kd in [6] was determined as 0.376 nM; in [7], 0.173 nM; in [8], 0.881 nM; in assay [11], 0.0248 nM. Besides, the values for the T1/2 in [6] and in assay [8] were 1 h and 0.13 h, respectively. The “IC50 … in HK293/RANK/NFκB-luc-eGFP cells” value in [9] was 0.045 nM and 0.084 nM. In addition, the figures for the IC50 (in assay [10]; with penta-his-tagged hRANKL [12]) were 0.345 nM and 0.06 nM, respectively.

B4: H4H008P2 (antibody, V domains shown)
VH: EVQLLESGGGLLQPGGSLRLSCAASGFTFSGFGMSWVRQAPGRGLEWVSVISYDGRNKYYADSVKGRFTSSRDNSKNTLYLQMNSLRAEDTAVYYCAKSLSGTYWGYGMDVWGRGTLVTVSS
VL: EIVLTQSPATLSLSPGERATLSCRASQSIRSWLAWYQQKPGQAPRLLIYKASNRATGIPARFSGSGSGTDFTLTISSLEPEDFGVYYCQQYNSYLWTFGGGTKVEIKR
Consider B4, for which the IC50 with penta-his-tagged hRANKL [1] worked out at 0.0569 nM; in assay [2], 1.8 nM. For the same molecule, the Kd with human trRANKL-his (R&D) [3] amounted to 0.0254 nM; in the assay with human trRANKL-his (R&D) [5] it was 0.245 nM. Besides, the T1/2 with human trRANKL-his (R&D) [3] was determined as 2 h; with human trRANKL-his (R&D) [5], 0.2 h. Also, the “IC50 … in HK293/RANK/NFκB-luc-eGFP cells” value in assay [4] turned out to be 0.015 nM.
